Measured values as given in PMC3466262, “Crystal Structure of ATV^ORF273, a New Fold for a Thermo- and Acido-Stable Protein from the Acidianus Two-Tailed Virus” (PLoS ONE, 2012).

Key:
[1] = target: the molecule itself; assay: SEC-MALS; Shodex KW803 column, 20 mM Hepes pH 7.4, 100 mM NaCl; protein injected at 4 mg/mL (121 uM)
[2] = target: the molecule itself; assay: SEC-MALS; Shodex KW803 column, 20 mM citrate buffer pH 3.6, 150 mM NaCl; protein injected at 4 mg/mL (121 uM)

B1: ATV^ORF273, virion protein of the Acidianus two-tailed virus (recombinant, C-terminal hexa-histidine tag) (natural protein)
chain: MGEKITEEREFQSISEIPEEEIDATNDEEKLADIVENEIEKEIRKSKTRKCKTIENFYYYILRDGKIYPASDYDIEVEKGKRSANDIYAFVETDVTRDFDEFLFDIDYGLPSISDILKFYLEKAGFRIANEVPTPNLKYYIHAVVEFGEDRPQYLAVNIYDIDSLARALRIPQIVEQKLGNKPRTITADEFNDIERIVAEEQPILAGYTYDEALRIPYHYYVDHNNSFKDDALKIAHAYLQLFPTPYQVCYEWKARWFNKIDCLKLERLKPSS
notes: ATV ORF273, virion protein of Acidianus two-tailed virus, UniProt Q3V4T6; native molar mass 32154 Da, recombinant protein 32977 Da; The printed masses (32154 Da native, 32977 Da recombinant) fit the whole ORF plus a His6 tag that is still on the protein; no cleavage of the tag is described; Oligomeric state depends on pH: tetramer at pH 7.4 and 8.5, dimer at pH 3.6; The models hold residues …
stoichiometry N [1]: 4 | stoichiometry N [2]: 2
